In patent US20150258192A1, “COMPOSITIONS AND METHODS FOR PREVENTING OR TREATING CHRONIC LUNG ALLOGRAFT DYSFUNCTION (CLAD) AND IDIOPATHIC PULMONARY FIBROSIS (IPF)” (priority 2014, published 2015):
No end group written: not given here.

Experiments:
Test in all cases: Kinase Profiling Assay
Assay type in all cases: biochemical
Details in all cases: peptide 100 μM
AMPKα2(h) = AMPKα2(h) (Homo sapiens, UniProt P54646)
Outline: (§1)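 Measured twice per kinase, activity in presence of MK2 inhibitory peptide was calculated against a 100% activity control after radiometric phosphorylation of a cationic substrate, anionic filter capture and scintillation counting; one of 266 human kinases profiled for specificity.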

BrSK1(h) = biological target: T1, BrSK1(h) (Homo sapiens, UniProt Q8TDC3)
T1 sequence (Q8TDC3 1-778): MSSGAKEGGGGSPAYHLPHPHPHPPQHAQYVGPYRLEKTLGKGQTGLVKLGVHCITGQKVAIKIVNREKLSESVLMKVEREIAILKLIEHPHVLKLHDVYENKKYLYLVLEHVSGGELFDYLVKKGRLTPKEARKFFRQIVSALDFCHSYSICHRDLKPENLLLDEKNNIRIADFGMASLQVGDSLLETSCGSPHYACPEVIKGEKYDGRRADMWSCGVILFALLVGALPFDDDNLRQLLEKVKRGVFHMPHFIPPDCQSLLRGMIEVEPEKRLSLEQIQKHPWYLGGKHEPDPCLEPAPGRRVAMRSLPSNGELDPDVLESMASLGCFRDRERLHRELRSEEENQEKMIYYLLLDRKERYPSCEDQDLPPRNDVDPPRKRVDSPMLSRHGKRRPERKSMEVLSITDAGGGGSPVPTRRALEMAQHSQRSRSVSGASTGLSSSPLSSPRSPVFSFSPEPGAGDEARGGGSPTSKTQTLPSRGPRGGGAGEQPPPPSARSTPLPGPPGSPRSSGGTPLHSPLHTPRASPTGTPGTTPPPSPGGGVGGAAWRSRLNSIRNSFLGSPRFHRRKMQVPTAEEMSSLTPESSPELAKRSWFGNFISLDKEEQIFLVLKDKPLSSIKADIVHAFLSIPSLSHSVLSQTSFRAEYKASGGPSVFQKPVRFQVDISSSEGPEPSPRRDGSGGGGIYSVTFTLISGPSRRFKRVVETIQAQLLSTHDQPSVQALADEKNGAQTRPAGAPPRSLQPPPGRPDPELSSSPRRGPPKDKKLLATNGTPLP
Outline: as §1

EphA8(h) = biological target: T2, EphA8(h) (Homo sapiens, UniProt P29322)
T2 sequence (P29322 28-1005): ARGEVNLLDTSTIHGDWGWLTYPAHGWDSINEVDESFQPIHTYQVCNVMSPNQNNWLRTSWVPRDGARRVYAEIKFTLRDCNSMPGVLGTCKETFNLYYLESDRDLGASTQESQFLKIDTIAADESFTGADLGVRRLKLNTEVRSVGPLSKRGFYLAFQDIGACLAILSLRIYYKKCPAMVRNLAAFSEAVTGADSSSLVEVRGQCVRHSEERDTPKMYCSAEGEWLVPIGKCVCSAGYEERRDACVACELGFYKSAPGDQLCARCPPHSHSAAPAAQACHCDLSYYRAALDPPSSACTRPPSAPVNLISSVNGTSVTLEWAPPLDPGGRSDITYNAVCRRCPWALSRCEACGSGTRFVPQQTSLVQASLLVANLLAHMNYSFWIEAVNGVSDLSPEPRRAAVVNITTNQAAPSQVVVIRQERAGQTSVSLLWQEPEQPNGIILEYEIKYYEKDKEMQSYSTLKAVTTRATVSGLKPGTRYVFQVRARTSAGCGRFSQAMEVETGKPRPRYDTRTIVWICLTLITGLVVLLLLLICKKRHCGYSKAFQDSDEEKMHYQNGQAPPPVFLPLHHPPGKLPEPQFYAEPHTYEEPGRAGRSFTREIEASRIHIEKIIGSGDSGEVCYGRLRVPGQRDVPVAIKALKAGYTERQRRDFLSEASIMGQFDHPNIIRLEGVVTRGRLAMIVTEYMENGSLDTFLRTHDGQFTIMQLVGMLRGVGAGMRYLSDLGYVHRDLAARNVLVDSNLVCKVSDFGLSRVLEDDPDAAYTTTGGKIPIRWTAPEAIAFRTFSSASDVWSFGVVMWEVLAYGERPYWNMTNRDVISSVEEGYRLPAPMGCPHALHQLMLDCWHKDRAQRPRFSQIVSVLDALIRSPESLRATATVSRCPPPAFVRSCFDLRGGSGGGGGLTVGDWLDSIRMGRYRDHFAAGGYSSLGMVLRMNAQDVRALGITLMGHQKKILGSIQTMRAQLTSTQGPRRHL
Outline: as §1

Fms(h) = Fms(h) (Homo sapiens, UniProt P07333)
Outline: as §1

PKCι(h) = biological target: T3, PKCι(h) (Homo sapiens, UniProt P41743)
T3 sequence (P41743 1-596): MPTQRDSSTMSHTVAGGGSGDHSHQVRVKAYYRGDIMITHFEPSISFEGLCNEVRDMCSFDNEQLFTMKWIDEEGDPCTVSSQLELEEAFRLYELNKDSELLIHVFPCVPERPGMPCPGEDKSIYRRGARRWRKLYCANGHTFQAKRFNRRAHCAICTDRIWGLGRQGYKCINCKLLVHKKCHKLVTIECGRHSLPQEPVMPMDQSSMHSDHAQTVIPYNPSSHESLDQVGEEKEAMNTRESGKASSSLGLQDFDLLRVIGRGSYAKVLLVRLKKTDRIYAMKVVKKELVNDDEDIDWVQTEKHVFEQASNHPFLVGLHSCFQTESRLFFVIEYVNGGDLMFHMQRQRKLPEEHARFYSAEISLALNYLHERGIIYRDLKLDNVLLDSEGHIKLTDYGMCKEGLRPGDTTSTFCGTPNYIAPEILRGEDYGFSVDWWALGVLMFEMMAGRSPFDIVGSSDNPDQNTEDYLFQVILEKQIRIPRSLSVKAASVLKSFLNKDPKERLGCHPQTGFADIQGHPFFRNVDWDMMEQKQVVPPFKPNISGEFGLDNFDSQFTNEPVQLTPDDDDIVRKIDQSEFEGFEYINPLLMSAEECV
Outline: as §1

PRK2(h) = PRK2(h) (Homo sapiens, UniProt Q16513)
Chain of PRK2(h) (Q16513 whole entry): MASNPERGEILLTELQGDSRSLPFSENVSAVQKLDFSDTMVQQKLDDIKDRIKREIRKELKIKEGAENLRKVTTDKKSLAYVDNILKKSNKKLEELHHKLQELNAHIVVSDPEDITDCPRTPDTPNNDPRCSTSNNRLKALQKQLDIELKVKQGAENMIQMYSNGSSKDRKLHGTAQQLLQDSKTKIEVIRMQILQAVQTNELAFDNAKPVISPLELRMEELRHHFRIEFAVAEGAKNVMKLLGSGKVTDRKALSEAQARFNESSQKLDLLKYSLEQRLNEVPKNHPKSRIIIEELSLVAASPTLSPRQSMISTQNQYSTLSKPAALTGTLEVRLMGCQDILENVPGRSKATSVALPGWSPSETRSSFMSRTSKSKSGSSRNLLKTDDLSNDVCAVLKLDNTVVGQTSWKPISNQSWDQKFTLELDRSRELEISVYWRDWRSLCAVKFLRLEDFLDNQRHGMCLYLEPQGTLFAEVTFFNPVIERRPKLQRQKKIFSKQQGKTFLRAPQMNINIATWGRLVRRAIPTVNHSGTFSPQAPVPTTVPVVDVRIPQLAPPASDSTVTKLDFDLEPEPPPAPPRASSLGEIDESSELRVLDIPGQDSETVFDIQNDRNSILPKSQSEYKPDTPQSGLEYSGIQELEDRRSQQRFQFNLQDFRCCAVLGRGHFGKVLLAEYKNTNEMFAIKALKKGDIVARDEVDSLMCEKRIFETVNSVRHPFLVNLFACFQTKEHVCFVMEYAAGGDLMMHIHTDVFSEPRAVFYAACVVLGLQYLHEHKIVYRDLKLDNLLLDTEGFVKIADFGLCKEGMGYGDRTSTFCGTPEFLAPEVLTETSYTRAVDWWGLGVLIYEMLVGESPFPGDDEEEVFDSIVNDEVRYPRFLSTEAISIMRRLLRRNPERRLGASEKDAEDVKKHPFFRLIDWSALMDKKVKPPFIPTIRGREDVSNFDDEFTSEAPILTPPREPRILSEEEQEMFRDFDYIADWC
Outline: as §1

ROCK-II(h) = ROCK-II(h) (Homo sapiens, UniProt O75116)
Chain of ROCK-II(h) (O75116 whole entry): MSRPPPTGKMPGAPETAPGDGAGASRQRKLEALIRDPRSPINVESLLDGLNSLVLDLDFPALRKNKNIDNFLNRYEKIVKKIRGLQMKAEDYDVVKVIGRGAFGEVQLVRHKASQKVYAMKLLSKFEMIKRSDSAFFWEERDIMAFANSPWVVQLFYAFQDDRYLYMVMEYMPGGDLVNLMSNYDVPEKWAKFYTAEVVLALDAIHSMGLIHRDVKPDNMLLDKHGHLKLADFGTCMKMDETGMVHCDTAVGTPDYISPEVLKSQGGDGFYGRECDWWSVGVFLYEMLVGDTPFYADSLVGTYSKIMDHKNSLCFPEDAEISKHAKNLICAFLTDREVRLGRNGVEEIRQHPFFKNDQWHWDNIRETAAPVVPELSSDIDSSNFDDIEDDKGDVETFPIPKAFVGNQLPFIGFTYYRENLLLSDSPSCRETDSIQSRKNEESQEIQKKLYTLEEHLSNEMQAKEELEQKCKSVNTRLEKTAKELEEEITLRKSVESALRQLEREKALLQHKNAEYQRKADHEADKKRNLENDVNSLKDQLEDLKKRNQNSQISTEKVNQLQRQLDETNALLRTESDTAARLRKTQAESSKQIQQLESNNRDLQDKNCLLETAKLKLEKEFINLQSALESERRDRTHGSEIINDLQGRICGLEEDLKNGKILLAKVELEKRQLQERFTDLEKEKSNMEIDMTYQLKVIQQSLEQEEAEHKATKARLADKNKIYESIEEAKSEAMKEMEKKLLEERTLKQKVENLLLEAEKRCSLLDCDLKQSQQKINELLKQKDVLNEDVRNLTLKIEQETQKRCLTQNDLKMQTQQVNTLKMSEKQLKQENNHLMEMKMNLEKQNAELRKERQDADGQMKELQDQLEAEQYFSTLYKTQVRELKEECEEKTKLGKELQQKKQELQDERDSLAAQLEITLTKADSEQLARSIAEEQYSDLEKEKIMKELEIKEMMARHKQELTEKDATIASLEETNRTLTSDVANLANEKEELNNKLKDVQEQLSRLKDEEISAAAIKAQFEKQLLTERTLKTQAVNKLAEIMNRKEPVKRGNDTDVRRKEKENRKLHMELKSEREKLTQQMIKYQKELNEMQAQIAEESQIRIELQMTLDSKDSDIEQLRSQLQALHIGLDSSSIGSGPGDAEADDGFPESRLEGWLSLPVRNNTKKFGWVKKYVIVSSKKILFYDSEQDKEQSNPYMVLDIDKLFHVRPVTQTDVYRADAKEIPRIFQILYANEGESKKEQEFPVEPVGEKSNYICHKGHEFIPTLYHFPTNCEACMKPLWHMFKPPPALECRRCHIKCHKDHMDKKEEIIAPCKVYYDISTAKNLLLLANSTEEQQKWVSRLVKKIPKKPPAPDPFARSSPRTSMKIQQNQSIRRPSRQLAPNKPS
Outline: as §1

Ret(h) = Ret(h) (Homo sapiens, UniProt P07949)
Outline: as §1

Fgr(h) = Fgr(h) (Homo sapiens, UniProt P09769)
Outline: as §1

Chain of AMPKα2(h) (P54646 whole entry): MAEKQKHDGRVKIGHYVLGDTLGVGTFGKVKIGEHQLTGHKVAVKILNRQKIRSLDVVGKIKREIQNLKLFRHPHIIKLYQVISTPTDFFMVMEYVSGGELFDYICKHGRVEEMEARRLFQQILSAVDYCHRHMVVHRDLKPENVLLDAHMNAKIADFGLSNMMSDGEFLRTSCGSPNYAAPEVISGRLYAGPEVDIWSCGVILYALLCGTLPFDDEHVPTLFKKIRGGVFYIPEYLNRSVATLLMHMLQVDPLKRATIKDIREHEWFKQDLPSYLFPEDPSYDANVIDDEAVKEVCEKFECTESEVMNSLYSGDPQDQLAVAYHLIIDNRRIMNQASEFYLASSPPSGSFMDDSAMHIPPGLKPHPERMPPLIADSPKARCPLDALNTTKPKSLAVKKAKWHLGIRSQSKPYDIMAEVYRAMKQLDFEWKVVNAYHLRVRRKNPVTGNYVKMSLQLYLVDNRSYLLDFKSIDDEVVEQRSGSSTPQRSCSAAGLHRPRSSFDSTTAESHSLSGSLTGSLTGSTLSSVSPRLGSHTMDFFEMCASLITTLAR
Chain of AMPKα2(h) (Q9Y478 whole entry partner): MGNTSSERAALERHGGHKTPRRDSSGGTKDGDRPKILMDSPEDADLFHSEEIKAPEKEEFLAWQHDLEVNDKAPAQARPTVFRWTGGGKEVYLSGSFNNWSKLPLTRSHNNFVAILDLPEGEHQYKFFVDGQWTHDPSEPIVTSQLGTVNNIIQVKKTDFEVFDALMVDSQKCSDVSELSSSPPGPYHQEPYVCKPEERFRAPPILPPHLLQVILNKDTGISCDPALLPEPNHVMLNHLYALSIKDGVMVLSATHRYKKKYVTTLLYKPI
Chain of AMPKα2(h) (P54619 whole entry partner): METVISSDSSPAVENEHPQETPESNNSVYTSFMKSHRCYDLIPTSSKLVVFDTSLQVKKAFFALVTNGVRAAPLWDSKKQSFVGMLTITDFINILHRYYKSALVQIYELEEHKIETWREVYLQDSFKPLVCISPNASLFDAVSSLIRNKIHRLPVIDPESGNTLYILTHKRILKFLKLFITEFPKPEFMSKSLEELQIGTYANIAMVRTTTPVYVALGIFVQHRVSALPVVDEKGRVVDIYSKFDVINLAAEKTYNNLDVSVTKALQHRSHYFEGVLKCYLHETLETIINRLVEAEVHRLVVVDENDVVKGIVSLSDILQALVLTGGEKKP

Sequence | % activity (AMPKα2(h)) [%] | % activity (BrSK1(h)) [%] | % activity (EphA8(h)) [%] | % activity (Fms(h)) [%] | % activity (PKCι(h)) [%] | % activity (PRK2(h)) [%] | % activity (ROCK-II(h)) [%] | % activity (Ret(h)) [%] | % activity (Fgr(h)) [%]
HRRIKAWLKKIKALARQLGVAA (Mammal) [MMI-0500] | 9 | 72 | 337 | 14 | 7 | 7 | 2 | 174 | 
YARAAARQARAKALNRQLGVA (Mammal) [MMI-0200] | 88 | 93 | 133 | 92 | 97 | 74 | 85 | 96 | 71
YARAAARQARAKALARQLGVAA [MMI-0100] |  | 100 | 181 | 89 | 110 | 72 |  | 108 | 
FAKLAARLYRKALARQLGVAA [MMI-0300] | 54 | 67 | 93 | 45 | 68 | 33 | 74 | 140 | 60
KAFAKLAARLYRKALARQLGVAA [MMI-0400] | 58 | 76 | 146 | 37 | 46 | 27 | 77 | 145 | 47
